Measured values from the supplement of paper PMC10126150.
± gives the standard deviation of the averaged measurements.

test system: ATP; test: switch fluorescence ratio, 500 uM ATP over buffer (Cy3 cluster intensity, sum of 5 cycles each) (fold (ratio)); higher = stronger signal-on switching upon ATP binding; sequences stand for … in TCGTCGGCAGCGTCAGATGTGTATAAGAGACAGTTTTTTTTTTTTTTTTTTTTTTTTT…TC; details: aptamer strand: ATP DNA aptamer (quencher-CACCTGGGGGAGTATTGCGGAGGAAGG + anchor), 100 nM annealed; ATP concentration: 500 uM
Outline: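 Five buffer/ATP imaging cycles were run on Cy3-labelled switching-strand clusters on a modified Illumina MiSeq flow-cell, with NaOH stripping and re-annealing between cycles. In each cycle, clusters annealed to 100 nM quencher-labelled ATP aptamer were imaged in selection buffer, then after 15 min with 500 uM ATP at 22 °C. Per cluster, the fluorescence ratio is summed target-cycle over summed buffer-cycle Cy3 intensity, averaged per switch-domain sequence. Only clusters within 100-1000 RFU were kept.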
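Further: ATP exposure 15 min at 22 °C before imaging.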

Sequence	switch fluorescence ratio
CATGGTAAAT	0.984 ± 0.018
GTCCGGCAAT	2.04 ± 0.33
AGGGCATTCG	0.979 ± 0.026
ATAAGCGTTC	1.04 ± 0.0013
CAAGTTGTGT	0.9774 ± 0.0087
GGCGCCGTTT	0.986 ± 0.023
CCTGGGCTGT	1.52 ± 0.48
TCAAACGTAT	1.06 ± 0.022
CTTCTTCGGT	1 ± 0.015
TTAACCGTTT	1.09 ± 0.08
TAAAAAAGAA	0.97 ± 0.03
TAAGGGCAAA	1.02 ± 0.032
GAGGCGGGGG	0.988 ± 0.012
CCCTGTAGGA	1.04 ± 0.088
AAAAGGAG	1.01 ± 0.016
GGGGTGGTTG	0.986 ± 0.036
GGGGGTGAGT	1.02 ± 0.012
GGAGGGGAAG	1.07 ± 0.14
GGAGATAGGT	1.04 ± 0.038
TGGGGACACT	1.02 ± 0.016
TGTTTTTGCT	0.969 ± 0.033
GGGGGTGTAG	1.008 ± 0.0053
GAAATTTACT	0.991 ± 0.053
ATTTTAGATC	1.01 ± 0.034
TAGTCCTATG	0.969 ± 0.021

Sequence	switch fluorescence ratio
TTAACTGGAA	0.978 ± 0.031
TTGCGTGCCG	0.98 ± 0.11
TTTGGTCATA	0.983 ± 0.024
TTTATGTTTC	0.98 ± 0.025
GGGGGAGGGG	1 ± 0.043
ACTGATCGCG	1.02 ± 0.034
AATATTTCCA	0.974 ± 0.023
AGTTTATAGA	1.01 ± 0.023
GGCGCAATTT	2.4 ± 0.27
ATGGCGATTG	0.996 ± 0.0078
TAGGGGATTG	1 ± 0.02
GCCATTAGGA	1.015 ± 0.0049
TTGAATTAGA	0.965 ± 0.025
TGTTTAAACG	1.025 ± 0.005
TAGTGTGTTT	0.9823 ± 0.0095
CTCGGCGCTT	1.05 ± 0.02
AAAACCAGAC	1.53 ± 0.078
TATCTAGGGG	0.981 ± 0.035
CAGGGGGCGT	0.984 ± 0.0037
TTGATGTTCG	0.976 ± 0.015
GACGAGGGGG	0.949 ± 0.11
AGTGGGAAAT	0.994 ± 0.015
CTCAGGAGGG	0.997 ± 0.047
GGGAATGTAT	0.979 ± 0.037
ATGGGCCCGT	1.01 ± 0.1

Sequence	switch fluorescence ratio
ATTTTTTGAG	1 ± 0.034
ATGTATTATA	1.01 ± 0.013
TTCGGTTCGT	0.98 ± 0.066
GAGCTACGTA	1.04 ± 0.026
CATGACCGAA	1.014 ± 0.0039
TTTTACGTTA	1.23 ± 0.11
AATATATTGG	1.028 ± 0.0042
TTGAATTTAG	0.986 ± 0.015
TAAGATAGGA	0.982 ± 0.013
TAGAGGGATG	0.989 ± 0.015
GGCCCTGCGG	1.02 ± 0.025
CTCTATCAAT	1.254 ± 0.0064
CGCGGAGCGC	1.17 ± 0.15
ATAAGACTCT	0.9964 ± 0.0081
ATTAATTGTG	1.01 ± 0.018
CTGTGTAGTG	0.9954 ± 0.002
TAGGTTGTTG	0.969 ± 0.011
TTTTAAATGG	1.06 ± 0.052
GCGTCGGGCA	0.997 ± 0.027
CCGGGCCTGC	1.11 ± 0.014
GTTACTGCGG	0.98 ± 0.021
TTATCATACG	1.03 ± 0.024
TTATATATCA	1.01 ± 0.013
GGTTGGTTTC	1.01 ± 0.055
GAACGGACAC	1.45 ± 0.015

Sequence	switch fluorescence ratio
GCATGGGGTA	1.05 ± 0.051
GGTGCTTAGG	1.02 ± 0.024
ATTACGGCAC	2.09 ± 0.14
GAATTGATTT	1.009 ± 0.0065
GAAAGGGGAT	0.99 ± 0.018
AGGGGACGGG	1.05 ± 0.037
TTTTTAAGGA	1.04 ± 0.048
AGTATTGGGT	0.998 ± 0.035
GATAGTGAAG	0.993 ± 0.015
TTTTTCGTGT	0.975 ± 0.038
GTTTCGTTTC	1.01 ± 0.025
TCTGAGAGAG	0.9823 ± 0.0032
GGGGTTTCTC	1.02 ± 0.031
AAGATGCTTA	0.9863 ± 0.0012
AACCTTAGTC	1.1 ± 0.045
TCCGGCGTGC	1.13 ± 0.23
CGGAGGGATG	1.71 ± 0.66
ATTAATCCAT	0.987 ± 0.019
ACAGGCTGGT	1.02 ± 0.028
ACTACTGGTT	1.03 ± 0.03
CATCTTAGTG	1.02 ± 0.057
GTTTGAATGT	0.97301 ± 0.0004
TTTGCCGGG	1.02 ± 0.0019
ATTTTAGCTG	1.01 ± 0.046
AGTGTTTCAG	0.956 ± 0.018

Sequence	switch fluorescence ratio
AGTAGGCGAG	0.996 ± 0.042
GATACTCAGC	1.06 ± 0.0058
ATTCTCCGGG	1.18 ± 0.065
AGACGGCTTG	1.01 ± 0.025
CATTTAGGTT	0.982 ± 0.019
ATGAGTTGTA	1.01 ± 0.012
CAATTTGTGG	0.968 ± 0.021
TTTGTTCGGT	1.01 ± 0.013
TTTGGGCGAG	0.976 ± 0.045
GAAGGGCGGA	1.018 ± 0.0045
GAGGGGTAGG	0.977 ± 0.021
AAACTTCGGG	1 ± 0.026
GATGGAAAAA	1.04 ± 0.012
AGCTGGCTAA	0.967 ± 0.014
CTATGTATGT	1.01 ± 0.022
ATAATAGATA	1.01 ± 0.038
CCAGGAGTAG	1.034 ± 0.0039
TGGGATGATG	1.008 ± 0.0095
ACTTAAGTAG	0.987 ± 0.04
TTAGTCAATT	0.97 ± 0.0044
AGGTCCGGGT	0.9981 ± 0.0065
CATTTTTCTG	0.963 ± 0.06
CGTCGGGGTG	1 ± 0.017
ATGTGTCGCG	0.9917 ± 0.0045
TAGATGCACA	0.9516 ± 0.0037

Sequence	switch fluorescence ratio
TGGAGCCTTT	1.1 ± 0.18
GCGAGTGTCC	0.99 ± 0.019
TGTTTTAAAT	0.978 ± 0.03
TCGTTACCCT	1.02 ± 0.011
CAATGTCTGG	1.008 ± 0.0027
TTTAGACTGG	1 ± 0.022
GACGTTTTCC	0.995 ± 0.097
ACTAATGGTT	1.03 ± 0.022
CTGGTATTCT	0.996 ± 0.037
AGTGGTGGTA	0.998 ± 0.018
TGAGGGTTGT	1.01 ± 0.046
GGGGAATTTA	1 ± 0.024
GTGGCTAACG	0.972 ± 0.06
AGCGGGGGGG	1.02 ± 0.036
AGTTGAAGGG	0.973 ± 0.018
GCCGAAAATA	0.988 ± 0.012
AAAGTTTTCC	1.08 ± 0.074
AAGGGGCGT	0.9961 ± 0.0036
GGTCTATCCG	0.983 ± 0.046
CGTACGAATG	0.9769 ± 0.007
TAAATGGCGT	1.01 ± 0.033
GCGTGCCTCG	1.02 ± 0.036
GAACTACAGG	0.987 ± 0.041
AAAAATGGGT	1 ± 0.016
TGGGAAATT	1.19 ± 0.19

Sequence	switch fluorescence ratio
AATAGGAATG	0.996 ± 0.017
AGCGTAGTGG	1.027 ± 0.0061
GTCCAAATGG	0.999 ± 0.022
ATGATCAGGG	1.009 ± 0.01
TAGTTGTTTG	0.9989 ± 0.0085
GGTGGTGTCG	1 ± 0.017
AGAGTTAACG	0.97158 ± 0.00066
TTAAGCGGAG	1.0092 ± 0.00077
TTATTCGGGG	0.968 ± 0.054
TAAGAATTCG	1.04 ± 0.056
GATTTTGTTC	1.03 ± 0.02
GCTCAAGGAG	0.9951 ± 0.0066
TTACTGGGGC	1.03 ± 0.03
TCCTTATTGG	1 ± 0.0068
AGTCTCTCAT	0.992 ± 0.03
TGGGAGAGCG	0.973 ± 0.016
ATTTTGTCGG	0.968 ± 0.018
AACCGGGATC	1.14 ± 0.013
TTCAGGTGGC	1.18 ± 0.17
ATGCGTGACA	1.02 ± 0.036
TTGGGCAACT	1.06 ± 0.07
GGTATTGTAG	0.982 ± 0.025
GCTTATTGTT	0.99355 ± 0.00014
CTATGGGGGT	0.997 ± 0.024
CCAAGTAAGG	1.08 ± 0.031

Sequence	switch fluorescence ratio
CGATGCTCCG	0.932 ± 0.024
ACTGGTCAGC	1 ± 0.029
AAATTTTTTG	1 ± 0.023
ATTACGGTCT	1.04 ± 0.02
AATCTGCCCA	1.04 ± 0.015
TGTGTCAGTG	1.01 ± 0.081
ATGAATTGGT	1.01 ± 0.019
AGGGAGGCCG	0.98 ± 0.11
CTTGGGGTTA	0.998 ± 0.023
TGAGTTTGTT	1.021 ± 0.0092
GAGTTTAATC	1 ± 0.018
AGCATGTGGT	1 ± 0.026
GGAGTCGTTG	0.968 ± 0.011
GGGGAAGTAC	1.53 ± 0.31
TGTGGGGGCG	1.01 ± 0.017
TATTCCTTTT	1.01 ± 0.013
GACTACGTTT	1.02 ± 0.013
TTGGTAGAAT	1.01 ± 0.014
GAGTTTTGAG	1 ± 0.011
ACTAGCTTGT	1.04 ± 0.026
